From patent publication US20230330254A1 (Regeneron, published 2023)
Where two headings read alike, the source gives them in different places.

T1: full-length mouse GLP1R on HEK293/CRE-Luc/mGLP1R cells (mouse, UniProt O35659 22-463)
T1 construct: whole, on cells
T1 sequence (looked up): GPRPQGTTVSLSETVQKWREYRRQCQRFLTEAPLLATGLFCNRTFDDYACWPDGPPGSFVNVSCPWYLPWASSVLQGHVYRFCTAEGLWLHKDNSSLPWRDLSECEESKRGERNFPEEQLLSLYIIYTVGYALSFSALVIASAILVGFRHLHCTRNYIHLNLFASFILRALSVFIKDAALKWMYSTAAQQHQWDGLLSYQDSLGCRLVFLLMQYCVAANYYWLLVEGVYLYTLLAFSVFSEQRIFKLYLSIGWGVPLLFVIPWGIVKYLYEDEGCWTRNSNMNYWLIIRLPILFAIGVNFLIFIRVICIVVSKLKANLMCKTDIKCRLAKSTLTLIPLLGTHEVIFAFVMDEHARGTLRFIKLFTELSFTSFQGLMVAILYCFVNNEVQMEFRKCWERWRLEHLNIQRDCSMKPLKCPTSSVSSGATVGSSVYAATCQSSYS

T2: full-length human glucagon-like peptide 2 receptor on HEK293/CRE-Luc/hGLP2R cells (human, UniProt O95838 1-553)
T2 sequence (looked up): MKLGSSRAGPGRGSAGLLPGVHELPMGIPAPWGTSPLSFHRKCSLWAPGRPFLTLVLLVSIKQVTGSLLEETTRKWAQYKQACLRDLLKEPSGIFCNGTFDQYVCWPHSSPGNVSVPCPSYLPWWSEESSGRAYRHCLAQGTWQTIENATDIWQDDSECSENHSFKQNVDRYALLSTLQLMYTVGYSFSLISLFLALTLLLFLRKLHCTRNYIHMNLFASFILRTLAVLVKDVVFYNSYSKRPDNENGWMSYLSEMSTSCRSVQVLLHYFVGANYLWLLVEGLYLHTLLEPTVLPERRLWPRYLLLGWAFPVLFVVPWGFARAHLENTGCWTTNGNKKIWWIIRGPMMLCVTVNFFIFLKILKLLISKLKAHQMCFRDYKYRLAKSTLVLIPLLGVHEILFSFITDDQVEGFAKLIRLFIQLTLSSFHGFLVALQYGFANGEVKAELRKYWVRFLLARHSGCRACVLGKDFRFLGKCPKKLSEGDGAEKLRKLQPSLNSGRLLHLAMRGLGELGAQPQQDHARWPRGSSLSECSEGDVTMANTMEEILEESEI

T3: full-length human gastric inhibitory polypeptide receptor on HEK293/CRE-Luc/hGIPR cells (human, UniProt P48546 22-466)
T3 sequence (looked up): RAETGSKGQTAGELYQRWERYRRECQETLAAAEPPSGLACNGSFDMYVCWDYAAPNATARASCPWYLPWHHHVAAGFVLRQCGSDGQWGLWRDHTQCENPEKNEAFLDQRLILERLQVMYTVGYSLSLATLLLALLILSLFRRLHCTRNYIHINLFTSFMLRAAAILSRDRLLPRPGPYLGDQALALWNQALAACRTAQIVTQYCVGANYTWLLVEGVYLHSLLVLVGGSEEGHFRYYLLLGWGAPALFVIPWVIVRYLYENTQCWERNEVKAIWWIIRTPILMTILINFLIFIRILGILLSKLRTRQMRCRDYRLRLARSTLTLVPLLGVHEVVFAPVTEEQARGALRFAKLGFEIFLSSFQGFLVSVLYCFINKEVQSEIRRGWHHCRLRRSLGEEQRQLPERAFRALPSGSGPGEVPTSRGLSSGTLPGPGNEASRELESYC

B1: REGN7990-M3190 (antibody, human IgG4 S228P, kappa, V domains shown)
VH: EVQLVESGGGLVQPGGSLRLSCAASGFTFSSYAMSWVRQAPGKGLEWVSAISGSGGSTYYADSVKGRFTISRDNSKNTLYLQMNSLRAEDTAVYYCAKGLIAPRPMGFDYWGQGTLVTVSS
VL: DIQMTQSPSSVSASVGDRVTITCRASQGINSWLAWYQQKPGKAPKLLIYAASSLQSGVPSRFSGSGSGTDFTLTISSLQPEDFATYYCHQADSFPYTFGQGTKLEIKR
modifications: linker-payload M3190 (LP11) on Gln 3 of the N-terminal Q-tag LLQGSG
notes: antibody-tethered drug conjugate; also called REGN7990 ATDC; anti-GLP1R mAb3-LP11
B2: GLP1R agonist linker-payload LP11 (NH2-PEG8-triazole-P8) (peptide)
peptide: XXGTXTSDXX
modifications: CapAib-E*-G-T-F*-T-S-D-AA2-AA1: CapAib = 3-((2-(1H-imidazol-5-yl)ethyl)amino)-2,2-dimethyl-3-oxopropanoic acid; E* = (S)-2-amino-3-(2H-tetrazol-5-yl)propanoic acid; F* = (S)-2-amino-3-(2-fluorophenyl)-2-methylpropanoic acid; AA2 = biphenylalanine derivative carrying the amino-PEG8-triazole linker; AA1 = (S)-2-amino-5-(3,5-dimethylphenyl)pentanamide

Key:
[1] = molecular target: T4, full-length human GLP1R on HEK293/CRE-Luc/hGLP1R cells (human, UniProt P43220 24-463); experiment: cell-based or functional assay
[2] = molecular target: human GLP1R on PathHunter eXpress GLP1R CHO-K1 b-Arrestin GPCR cells (human, UniProt P43220 24-463); experiment: cell-based or functional assay
[3] = molecular target: T1, full-length mouse GLP1R on …; experiment: flow cytometry, mGLP1R cells
[4] = molecular target: T4, full-length human GLP1R on …; experiment: flow cytometry, hGLP1R cells
[5] = molecular target: T5, full-length cynomolgus GLP1R on HEK293/CRE-Luc/mfGLP1R cells (cynomolgus, UniProt F8V479 24-463); experiment: flow cytometry, mfGLP1R cells
T5 construct: whole, on cells

[6] = molecular target: T4, full-length human GLP1R on …; experiment: flow cytometry, hGLP1R cells; remark: listed apart in the source
[7] = molecular target: T2, full-length human glucagon-like peptide …; experiment: cell-based or functional assay
[8] = molecular target: T4, full-length human GLP1R on …; experiment: cell-based or functional assay; remark: listed apart in the source
[9] = molecular target: T5, full-length cynomolgus GLP1R on …; experiment: cell-based or functional assay
[10] = molecular target: T6, full-length human glucagon receptor on HEK293/CRE-Luc/hGCGR cells (human, UniProt P47871 26-477); experiment: cell-based or functional assay
T6 sequence (P47871 26-477): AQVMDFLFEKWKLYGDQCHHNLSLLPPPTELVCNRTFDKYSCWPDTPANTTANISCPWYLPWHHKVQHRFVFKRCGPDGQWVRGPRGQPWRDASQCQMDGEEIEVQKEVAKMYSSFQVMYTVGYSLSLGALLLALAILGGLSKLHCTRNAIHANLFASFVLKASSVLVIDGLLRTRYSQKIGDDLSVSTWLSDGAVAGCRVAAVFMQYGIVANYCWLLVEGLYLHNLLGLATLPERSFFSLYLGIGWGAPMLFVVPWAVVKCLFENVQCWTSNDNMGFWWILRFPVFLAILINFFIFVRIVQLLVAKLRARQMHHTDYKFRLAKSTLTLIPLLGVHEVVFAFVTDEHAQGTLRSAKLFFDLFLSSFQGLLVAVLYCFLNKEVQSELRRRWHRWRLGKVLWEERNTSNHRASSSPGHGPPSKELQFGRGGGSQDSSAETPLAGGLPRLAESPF

[11] = molecular target: T3, full-length human gastric inhibitory …; experiment: cell-based or functional assay
[12] = molecular target: T7, N-terminal ectodomain of human GLP1R expressed with a myc-myc hexahistidine tag (human, UniProt P43220 24-145, limits assumed); experiment: SPR, captured via anti-hFc, 25 C
T7 construct: extracellular domain; also called hGLP1R-MMH; hGLP1R.mmh
T7 sequence (P43220 24-145 limits assumed): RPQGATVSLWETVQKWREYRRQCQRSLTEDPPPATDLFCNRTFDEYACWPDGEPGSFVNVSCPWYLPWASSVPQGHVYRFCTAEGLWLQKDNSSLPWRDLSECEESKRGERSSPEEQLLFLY

[13] = molecular target: T5, full-length cynomolgus GLP1R on …; experiment: flow cytometry, mfGLP1R cells; remark: listed apart in the source
[14] = molecular target: T4, full-length human GLP1R on …; experiment: cell-based or functional assay; remark: listed apart in the source
[15] = molecular target: T2, full-length human glucagon-like peptide …; experiment: cell-based or functional assay; remark: listed apart in the source
[16] = molecular target: T4, full-length human GLP1R on …; experiment: cell-based or functional assay; remark: listed apart in the source
[17] = molecular target: T5, full-length cynomolgus GLP1R on …; experiment: cell-based or functional assay; remark: listed apart in the source
[18] = molecular target: T6, full-length human glucagon receptor on …; experiment: cell-based or functional assay; remark: listed apart in the source
[19] = molecular target: T3, full-length human gastric inhibitory …; experiment: cell-based or functional assay; remark: listed apart in the source
[20] = molecular target: T4, full-length human GLP1R on …; experiment: cell-based or functional assay; remark: listed apart in the source
[21] = molecular target: T4, full-length human GLP1R on …; experiment: cell-based or functional assay; remark: listed apart in the source
[22] = molecular target: Myc-tagged full length human GLP1R on HEK293/Myc-hGLP1R/Cre-Luc cells (human, UniProt P43220 24-463); experiment: cell-based or functional assay

| Binder | CRE-luc EC50 [1] | CRE-luc Emax (% GLP-1) [1] | b-arrestin 2 recruitment EC50 [2] | b-arrestin 2 recruitment Emax (% GLP-1) [2] | CRE-luc EC50 [7] | CRE-luc EC50 [8] | CRE-luc EC50 [9] | CRE-luc EC50 [10] | CRE-luc EC50 [11] | CRE-luc EC50 [14] | CRE-luc Relative Potency (% M2361 EC50) [14] | CRE-luc Relative Signal:Noise (% M2361) [14] | CRE-luc S/N [14] | CRE-luc EC50 [15] | CRE-luc EC50 [16] | CRE-luc EC50 [17] | CRE-luc EC50 [18] | CRE-luc EC50 [19] | other results |
| --- | --- | --- | --- | --- | --- | --- | --- | --- | --- | --- | --- | --- | --- | --- | --- | --- | --- | --- | --- |
| B1 | 0.236 nM | 90.9% | 17.2 nM | 103% | > 200 nM | 0.0724 nM | 0.0772 nM | > 200 nM | > 200 nM | 0.0601 nM | 27% | 135% | 86.9 fold | > 30 nM | 0.0637 nM | 0.257 nM | > 30 nM | > 30 nM | EC50 [3]: 91.5 nM; Flow S/N [3]: 29.3 fold; EC50 [4]: 9.81 nM; Flow S/N [4]: 117 fold; EC50 [5]: 4.79 nM; Flow S/N [5]: 103 fold; EC50 [6]: 30.5 nM; Flow S/N [6]: 231 fold; 90 nM hGLP1R.mmh Bound (RU) [12]: 22.8 RU; Kd [12]: 2.01 nM; koff [12]: 0.000785 s⁻¹; kon [12]: 390000 M⁻¹ s⁻¹; t1/2 [12]: 14.7 min; EC50 [13]: 29.9 nM; Flow S/N [13]: 486 fold |
| B2 | 0.0168 nM | 93.9% | 2.48 nM | 108% | > 200 nM | 0.0258 nM | 0.0463 nM | > 200 nM | > 200 nM | 0.0369 nM | 44% | 96.4% | 62 fold | > 30 nM | 0.0601 nM | 0.202 nM | > 30 nM | > 30 nM | CRE-luc EC50 (experiment A) [20]: 0.0161 nM; CRE-luc Relative Potency (% P8 EC50) (experiment A) [20]: 33.1%; CRE-luc S/N (experiment A) [20]: 74.5 fold; cAMP EC50 [21]: 0.318 nM; CRE-luc EC50 [22]: 0.016 nM |
